This is an account of results in paper PMC12685063.

This test concerns the target Shigella flexneri LptDE complex (SfLptDE), His6 tag on LptE (Shigella flexneri). The experiment in a line: SEC.

“receptor binding protein (RBP) of the small siphophage Oekolampad (bas018) (natural protein)” gave a percent RBP (Oeko) binding (complex formation after 48 h, band densitometry against LptE) of 15 to 35%.
